Blank lines part the entries; values can stand above or below the binder they belong to.
Tests used:
[1] = target: T1, EphA2-Fc (extracellular domain of human EphA2 linked to human IgG1 constant region) (human, UniProt P29317 24-537); assay: competitive ELISA on EphA2-Fc; competitor: labeled EA2; x axis is the ratio of unlabeled to labeled antibody
T1 construct: extracellular domain; Used as immunogen, ELISA antigen and BIACORE ligand; not shown: human IgG1 constant region
Text: Supernatants from bulk culture hybridomas were screened for immunoreactivity against EphA2 (Table 6, column 4) using standard molecular biological techniques (e.g., ELISA immunoassay). Supernatants were further screened for the ability to inhibit an EphA2 monoclonal antibody (EA2; ATCC deposit no. PTA-4380; see co-pending U.S. patent application Ser. No. 10/436,783, entitled “EphA2 Agonistic Monoclonal Antibodies and Methods of Use Thereof” filed May 12, 2003) from binding to EphA2. […] Both antibodies could decrease the amount of labeled EA2 binding to EphA2-Fc with increasing concentrations of unlabeled antibody added. Additionally, many of the other antibodies could inhibit EA2 binding to EphA2 as well (Table 6, column 3).

[2] = target: T1, EphA2-Fc (extracellular domain of human …); assay: BIACORE, EphA2-Fc immobilized on a CM5 chip, double-referenced; undiluted hybridoma supernatant
Description: EphA2-Fc was immobilize to a surface on a CM5 sensorchip using a standard amine (70 μl of a 1:1 mix of NHS/EDC) coupling chemistry. Briefly, a 400 nM solution of EphA2-Fc in 10 mM NaOAc, pH4, was then injected over the activated surface to a density of 1000-1100 RU's. Unused reactive esters were subsequently “capped” with a 70 μinjection of 1M Et-NH2. Similarly, an activated and “capped” control surface was prepared on the same sensor chip without protein to serve as a reference surface.
A 250 μl injection of each of the EphA2 hybridoma supernatants was made over both the EphA2-Fc and control surfaces, and the binding responses were recorded. These supernatants were used undiluted. Following each injection, at least 10 min. of dissociation phase data was collected. Purified EphA2 monoclonal antibody EA2 was prepared to serve as a positive control (at 1 μg, 5 μg and 25 μg per 250 μl of growth medium). […] Control injections of growth medium across these surfaces were also made. Following each binding cycle, the EphA2-Fc surface was regenerated with a single 1 min. pulse (injection) of 1M NaCl-50 mM NaOH.

[3] = target: T2, EphA2 on cells (MDA-MB-231, MCF-10A, MCF-7 transfected with human EphA2) (human, UniProt P29317 24-976); assay: immunofluorescence, 10 µg/ml at 4 C, MDA-MB-231 and MCF-10A cells
T2 construct: whole, on cells; MDA-MB-231 and MCF-10A carry endogenous EphA2 and no species is stated for them
T2 sequence (P29317 24-976): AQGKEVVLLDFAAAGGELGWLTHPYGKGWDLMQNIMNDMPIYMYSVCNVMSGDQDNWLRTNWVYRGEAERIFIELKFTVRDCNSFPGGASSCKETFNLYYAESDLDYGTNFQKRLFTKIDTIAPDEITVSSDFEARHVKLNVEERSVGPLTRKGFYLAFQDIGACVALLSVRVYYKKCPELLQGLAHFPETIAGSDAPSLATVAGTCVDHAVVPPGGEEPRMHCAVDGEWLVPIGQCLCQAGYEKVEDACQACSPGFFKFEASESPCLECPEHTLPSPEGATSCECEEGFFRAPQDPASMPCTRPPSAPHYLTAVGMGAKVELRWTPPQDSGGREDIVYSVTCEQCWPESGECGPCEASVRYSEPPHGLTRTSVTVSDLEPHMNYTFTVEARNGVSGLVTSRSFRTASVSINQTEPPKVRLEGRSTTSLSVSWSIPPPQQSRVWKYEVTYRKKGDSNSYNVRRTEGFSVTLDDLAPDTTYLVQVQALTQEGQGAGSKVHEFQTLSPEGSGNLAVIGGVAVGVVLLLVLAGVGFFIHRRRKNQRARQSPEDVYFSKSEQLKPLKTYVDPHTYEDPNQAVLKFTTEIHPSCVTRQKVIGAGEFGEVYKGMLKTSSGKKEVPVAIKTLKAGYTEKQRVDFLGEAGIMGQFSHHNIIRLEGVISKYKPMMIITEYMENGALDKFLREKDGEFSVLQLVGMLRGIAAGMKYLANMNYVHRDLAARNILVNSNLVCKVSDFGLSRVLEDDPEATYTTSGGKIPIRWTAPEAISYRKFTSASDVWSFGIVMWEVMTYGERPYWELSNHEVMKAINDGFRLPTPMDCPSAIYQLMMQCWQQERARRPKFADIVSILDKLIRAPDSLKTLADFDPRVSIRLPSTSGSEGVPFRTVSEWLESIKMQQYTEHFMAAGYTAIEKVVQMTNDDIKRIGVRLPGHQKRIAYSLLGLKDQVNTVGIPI
Description: The epitopes of EphA2 antibodies were characterized. […] EA2 preferentially binds EphA2 on transformed cells (FIG. 16D). […] Treatment of non-transformed MCF-10A cells with 4 mM EGTA for 20 min. dissociated the cells. EA2 bound EphA2 on the EGTA dissociated cells but not the untreated cells (FIGS. 17A-17B).

T1 sequence (P29317 24-537): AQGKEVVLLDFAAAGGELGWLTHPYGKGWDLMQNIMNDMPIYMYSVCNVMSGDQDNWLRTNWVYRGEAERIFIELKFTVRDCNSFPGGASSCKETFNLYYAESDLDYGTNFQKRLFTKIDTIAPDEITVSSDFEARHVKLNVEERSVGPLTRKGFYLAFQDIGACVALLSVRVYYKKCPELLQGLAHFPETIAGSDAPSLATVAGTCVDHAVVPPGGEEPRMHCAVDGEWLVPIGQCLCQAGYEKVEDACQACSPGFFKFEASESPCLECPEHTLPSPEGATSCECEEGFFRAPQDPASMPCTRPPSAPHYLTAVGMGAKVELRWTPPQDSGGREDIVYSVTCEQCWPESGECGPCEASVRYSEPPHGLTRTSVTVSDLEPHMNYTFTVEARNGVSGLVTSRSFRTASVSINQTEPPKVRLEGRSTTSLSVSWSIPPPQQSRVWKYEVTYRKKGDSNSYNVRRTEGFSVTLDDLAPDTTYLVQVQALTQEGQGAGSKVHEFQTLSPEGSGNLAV

binding result [1]: binds
B1: Eph099B-208.261 (ATCC PTA-4573) (antibody, V domains shown)
VH: QVQLQQPGAELVKPGASVKLSCKASGYTFTSYWMHWVKQRPGQGLEWIGMIHPNSGSTNYNEKFKSKATLTVDKSSSTAYMRLSSLTSEDSAVYYCARGGNMVGGGYWGQGTTLTVSS
VL: QIVLTQSPALMSASPGEKVTMTCSASSSVSYMYWYQQKPRSSPKPWIYLTTNLASGVPARFSGSGSGTSYSLTISSMEAEDAATYYCQQWSSNPFTFGSGTKLEIR
notes: Mouse hybridoma antibody (SJL mice)

binding result [2]: binds | binding result [3]: binds
B2: Eph099B-233.152 (ATCC PTA-5194) (antibody, V domains shown)
VH: EVKLVESGGGLVQPGGSLSLSCAASGFTFTDYSMNWVRQPPGKALEWLGFIRNKANDYTTEYSASVKGRFTISRDNSQSILYLQMNALRAEDSATYYCVRYPRYHAMDSWGQGTSVTVSS
VL: DIVLTQSPATLSVTPGDSVNLSCRASQSISNNLHWYQQKSHESPRLLIKYVFQSISGIPSRFSGSGSGTDFTLSINSVETEDFGMYFCQQSNSWPLTFGAGTKLELK
notes: Mouse hybridoma antibody (SJL mice); detected with anti-mouse IgG

Reference: patent US20070166314A1 (AstraZeneca / MedImmune, published 2007)
